What all share (assay): holdup assay
Holding throughout (parameters): key: below the threshold = too weak to quantify, mostly under pKd 3.1 to 4
Details in all cases: plain residues with an end cap or a label only (N-terminal biotin on a linker: ttds)

Test [1] addresses DLG5_2, Q8TDM6.
The target in test [2] is T1, PDZD2_4, O15018.
T1 sequence (O15018 723-823, limits assumed, looked up): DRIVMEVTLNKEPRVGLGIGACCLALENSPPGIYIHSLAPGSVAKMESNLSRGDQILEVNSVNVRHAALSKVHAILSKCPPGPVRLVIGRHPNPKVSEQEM

Test [3] addresses T2, MPDZ_2, O75970.
T2 sequence (O75970 252-347, limits assumed, looked up): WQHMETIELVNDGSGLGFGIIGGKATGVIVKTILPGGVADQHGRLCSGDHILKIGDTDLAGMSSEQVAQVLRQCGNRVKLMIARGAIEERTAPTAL

In test [4] the target is T3, INTU, Q9ULD6.
T3 sequence (Q9ULD6 180-273, limits assumed, looked up): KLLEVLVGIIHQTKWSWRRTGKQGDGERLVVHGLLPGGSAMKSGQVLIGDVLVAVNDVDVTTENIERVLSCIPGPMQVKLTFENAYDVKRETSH

In test [5] the target is T4, SHROOM3, Q8TF72.
T4 sequence (Q8TF72 20-120, limits assumed, looked up): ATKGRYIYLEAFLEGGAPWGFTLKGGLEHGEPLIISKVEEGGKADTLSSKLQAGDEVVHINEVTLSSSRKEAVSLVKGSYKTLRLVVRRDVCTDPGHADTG

Test [6] addresses T5, PDZD7_1, Q9H5P4.
T5 sequence (Q9H5P4 81-178, limits assumed, looked up): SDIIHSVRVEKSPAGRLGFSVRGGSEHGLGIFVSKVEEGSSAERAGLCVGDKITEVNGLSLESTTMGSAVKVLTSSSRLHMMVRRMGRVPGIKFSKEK

Test [7] concerns the target T6, TJP3_1, O95049.
T6 sequence (O95049 6-103, limits assumed, looked up): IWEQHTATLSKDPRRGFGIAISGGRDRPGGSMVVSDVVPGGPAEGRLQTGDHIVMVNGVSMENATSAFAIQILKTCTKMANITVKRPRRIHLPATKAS

Test [8] deals with T7, MPP5, Q8N3R9.
T7 sequence (Q8N3R9 251-346, limits assumed, looked up): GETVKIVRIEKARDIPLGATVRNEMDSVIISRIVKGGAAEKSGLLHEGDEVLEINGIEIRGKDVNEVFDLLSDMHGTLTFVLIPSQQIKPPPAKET

Test [9] has as its target T8, PDZD4, Q76G19.
T8 sequence (Q76G19 125-224, limits assumed, looked up): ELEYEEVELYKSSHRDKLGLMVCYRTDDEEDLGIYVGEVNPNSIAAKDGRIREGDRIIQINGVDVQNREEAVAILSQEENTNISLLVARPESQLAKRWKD

Test [10] concerns the target DVL2, O14641.
Test [11] concerns the target T9, USH1C_3, Q9Y6N9.
T9 sequence (Q9Y6N9 447-547, limits assumed, looked up): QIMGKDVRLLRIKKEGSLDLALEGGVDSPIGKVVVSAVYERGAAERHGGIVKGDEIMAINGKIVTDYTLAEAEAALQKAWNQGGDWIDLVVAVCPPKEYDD

Test [12] deals with T10, MPDZ_7, O75970.
T10 sequence (O75970 1146-1253, limits assumed, looked up): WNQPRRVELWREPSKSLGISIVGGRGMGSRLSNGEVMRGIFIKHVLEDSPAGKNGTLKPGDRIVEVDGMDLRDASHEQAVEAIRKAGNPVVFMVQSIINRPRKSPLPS

For test [13], the target named is T11, PDZD8, Q8NEN9.
T11 sequence (Q8NEN9 361-459, limits assumed, looked up): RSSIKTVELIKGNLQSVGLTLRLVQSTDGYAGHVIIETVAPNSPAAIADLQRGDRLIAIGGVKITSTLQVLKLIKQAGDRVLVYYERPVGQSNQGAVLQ

Test [14] concerns the target T12, MPP1, Q00013.
T12 sequence (Q00013 66-162, limits assumed, looked up): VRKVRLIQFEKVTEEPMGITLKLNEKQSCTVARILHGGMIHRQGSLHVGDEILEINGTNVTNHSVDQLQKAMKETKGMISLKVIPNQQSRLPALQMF

For test [15], the target named is Q5TCQ9.
The target of test [16] is O00233.
Test [17] addresses Q70Z35.
Test [18] addresses O60759.
Test [19] concerns the target Q8IUC4.
Test [20] has as its target Q9C0E4.
Test [21] addresses T13, SNTB2, Q13425.
T13 sequence (Q13425 110-208, limits assumed, looked up): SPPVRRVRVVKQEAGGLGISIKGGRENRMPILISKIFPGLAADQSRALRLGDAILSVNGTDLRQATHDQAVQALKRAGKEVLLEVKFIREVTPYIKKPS

The target in test [22] is Q9Y3R0.
Test [23] has as its target Q13009.
Test [24] concerns the target Q9NPB6.
Test [25] has as its target GRIP2_2, Q9C0E4.
Test [26] addresses Q96SB3.

Sequence of DLG5_2, Q8TDM6 (Q8TDM6 714-800): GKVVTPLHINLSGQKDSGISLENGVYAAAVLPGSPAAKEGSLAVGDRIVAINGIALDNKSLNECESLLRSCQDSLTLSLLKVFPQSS
Sequence of GRIP2_2, Q9C0E4 (Q9C0E4 137-245): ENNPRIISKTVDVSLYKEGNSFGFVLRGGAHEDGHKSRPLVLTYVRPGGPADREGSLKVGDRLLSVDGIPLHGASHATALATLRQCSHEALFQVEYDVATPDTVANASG
Sequence of DVL2, O14641 (O14641 260-359): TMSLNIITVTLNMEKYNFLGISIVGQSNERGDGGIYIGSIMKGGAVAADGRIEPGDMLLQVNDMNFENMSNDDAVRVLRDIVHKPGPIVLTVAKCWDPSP

B1: NET1, Q7Z628 (peptide)
chain: SGGKRKETLV
The pKd is the Kd on a negative log10 scale, so that one unit is a factor of ten. For the molecule B1, the pKd in test [1] was 4.58; in test [2], “below the threshold”; in test [3], 3.75; in [4] it was “below the threshold”; in test [5], “below the threshold”; in test [6], “below the threshold”. The pKd result in test [7] was “below the threshold”; in test [8], “below the threshold”; in test [9], 3.72; in test [10], “below the threshold”; in test [11] it was “below the threshold”; in test [12], 4.35. Besides, the pKd result in [13] and in test [14] was “below the threshold” each time.

B2: RASSF6, Q6ZTQ3 (peptide)
chain: KLVIKTETTV
For the molecule B2, the pKd result is “below the threshold” in test [15]; “below the threshold” in test [16]; “below the threshold” in [17]; “below the threshold” in test [18]; 4.33 in [1]; “below the threshold” in test [2]. Moreover, the negative-log Kd (pKd) result in test [3] was “below the threshold”; in [19] it was “below the threshold”; in test [20] it was “below the threshold”; in [4], “below the threshold”; in [5] it was “below the threshold”; in test [21], 4.2. The pKd result in test [6], in test [22], in test [23], in test [7], in test [8] and in test [9] was “below the threshold” in each case. In addition, the pKd entry in test [24], in [25], in test [10], in test [11], in test [12] and in [13] was “below the threshold” in each case. The same molecule registered a pKd in test [14] of 5.13.

B3: HPV82-E6, Q9IR59 (peptide)
chain: PPRQRSETQV
Regarding B3, the pKd result is “below the threshold” in test [15]; “below the threshold” in [16]; “below the threshold” in test [17]; “below the threshold” in [18]; “below the threshold” in test [1]; 4.53 in [2]. The negative-log Kd (pKd) entry in [3], in [19], in [20], in test [5], in test [21] and in [6] was “below the threshold” throughout. Also, the pKd entry in [22], in test [23], in test [7], in test [8], in [9] and in test [26] was “below the threshold” each time. The pKd result in test [24], in test [25], in [10], in test [11], in test [12] and in [13] was “below the threshold” each time. Besides, the pKd in [14] worked out at 5.75.

B4: HPV33-E6, P06427 (peptide)
chain: SRSRRRETAL
Consider B4, for which the pKd in [1] was 4.78; in [2], “below the threshold”; in test [3] it was “below the threshold”; in test [4], 4.54; in test [5], “below the threshold”; in [21], 4.56. The pKd entry in test [6], in [7], in test [8], in [9], in [25] and in [10] was “below the threshold” in each case. Moreover, the pKd entry in [11] is “below the threshold”; in [12], “below the threshold”; in test [13], “below the threshold”; in [14], 4.79.

B5: RALBP1, Q15311 (peptide)
chain: PSRDRKETSI
In the case of B5, the pKd result was “below the threshold” in test [15]; “below the threshold” in [16]; “below the threshold” in [17]; “below the threshold” in test [18]; 4.26 in test [1]; “below the threshold” in [2]. The pKd result was “below the threshold” in test [3]; “below the threshold” in test [19]; “below the threshold” in [20]; “below the threshold” in test [4]; “below the threshold” in [5]; 3.94 in test [21]. The pKd result in [6], in test [22], in test [23], in [7], in test [8] and in test [9] was “below the threshold” in each case. In addition, the pKd result in [24] was “below the threshold”; in test [25] it was 4.25; in test [10] it was “below the threshold”; in test [11], “below the threshold”; in [12] it was “below the threshold”; in [13], “below the threshold”. The same molecule gave a pKd in test [14] of 4.01.
